Results on 11 molecules are retold here after patent US12247238B2, “Mogroside biocatalysis methods and products” (The Coca-Cola Company, priority 2019, dated 2025).

Numbering of substitutions follows the chain as printed. Numbers in names are those of the source. Entries after “also recorded” stand apart in the source; their conditions may differ.

What all share (type): biochemical
Data set [1] is described as follows: Reaction distributions (product ratios) of beta-galactosidase preparations. The settings on record: 12.8 g/L MG-V (10 mM), pH 6.0, 50° C., 96 hrs. Here is the method:
(§1) Mogroside compounds HPLC separation and quantification was conducted using a Synergi Hydro-RP column (250 mm×4.6 mm or 150 mm×4.6 mm) with an initial flow rate of 1 mL min−1 and a water: acetonitrile gradient as per below, similar to that described by Zhou et al. (WO 2014/150127). Compounds were detected at 210 nm using diode array detector (Agilent Technologies, USA), and calibration curves established using standard curves from 0.1 to 10 mM.
Reaction distributions were evaluated for G5160 beta-galactosidase (Sigma), Maxilact A4 beta-galactosidase (DSM) and Pp-Aspergillus oryzae beta-galactosidase.
Using 12.8 g/L MG-V (10 mM) at pH 6.0, 50° C. for 96 hrs reaction time

A short description of data set [2]: Standard mogroside biocatalytic assay, mogroside V substrate. The settings on record: for Initial Rate / Reaction Progress / Sia 1: Mogroside hydrolysis; for Initial Rate / Reaction Progress / Sia 1 / Sia:MogIII / Sia:MogIV: 37 C., pH 5.6; for Reaction Progress / Sia 1 / Sia:MogIII / Sia:MogIV: 72 h; for Sia:MogIII / Sia:MogIV: product ratio. Here is the method: (§2) Standard mogroside biocatalytic assays were performed at 37° C. in 500 μL, volume 50 mM sodium citrate buffer pH 5.6, 10 mM magnesium chloride, 10 mM substrate (typically mogroside V) and 50 μg mL−1 enzyme, and incubated for 24-96 hours. Mogroside glucosidation activity was detected by direct HPLC detection and quantification of mogroside V substrate and mogroside products from filtered reaction supernatant, and quantified by comparison with standard curves based on peak.
as §1
(§3) Cells expressing enzyme variants grown in buffered minimal medium were induced for 72 hr with 1% methanol (refreshed every 24 hr), the culture supernatant harvested and assayed for standard ONPG activity over 30 minutes and mogroside V activity at pH 5.6, 37° C. for 72 hrs. The resultant activity data (Table 2) identified E200 and D258 as the likely catalytic pair for acid/base and nucleophilic attack of mogroside V by the A. oryzae β-glucosidase enzyme.

Data set [3] is described as follows: RRK loop library variant second pass evaluation, Siamenoside I substrate. As to conditions: Siamenoside I as substrate. How it is done: (§4) Single transformant colonies from 3.2.2 were inoculated into 2mL BMGY in 48 well-growth blocks and grown overnight at 30° C., 1000 rpm in a benchtop incubator before dilution of cell culture from each well into 2 mL BMM medium an equivalent well in a fresh growth block, to an OD600 nm of 1.0, and growing the induction growth blocks at 30° C., 1000 rpm in a benchtop incubator for 72 hours. The cells were then harvested (5000 g, 10 minutes) and the supernatant from each well concentrated using a 30 kDa cut-off Amicon Ultra 0.5 mL concentrator column (10 000 g, 5 minutes). Enzymatic assays were setup in fresh growth blocks to a total volume of 500 μL, comprising with 50 mM sodium citrate buffer pH 5.6, 10 mM magnesium chloride, 10 mM mogroside V and 50 μL concentrated supernatant (˜35 μg mL−1 protein). Assays were incubated without shaking at 37° C. for 72 hours. 190 μL of reaction was combined with 10 μL 10 mM internal standard (N-Boc-) and 5 μL analyzed by HPLC.
as §1, with “mM. 150 mm column retention times in minutes: mog V 9.5, sia 1 10.6, mog IVa 10.5, mog IV 11.3, mog III 12.6, mogl I 13.2. 250 mm column retention times: mog V 12.3, sia 1 13.2, mog IVa 13.5, mog IV 14.1, mog III 15.3, mog II 16.2.” for “mM.”
(§5) 48 variants were selected based on Siamenoside I yields of >70% by peak area for a second pass evaluation. The cell lines were regrown and assayed with both mogroside V and Siamenoside I as substrates, independently.

Data set [4] in a line: RRK loop library variant screening, mogroside V substrate. As to conditions: second pass evaluation, 10 mM mogroside V, pH 5.6, 37° C., 72 hours. How it is done: as §4
as §1, with “mM. 150 mm column retention times in minutes: mog V 9.5, sia 1 10.6, mog IVa 10.5, mog IV 11.3, mog III 12.6, mogl I 13.2. 250 mm column retention times: mog V 12.3, sia 1 13.2, mog IVa 13.5, mog IV 14.1, mog III 15.3, mog II 16.2.” for “mM.”
Therefore, variants showing improved function were chosen if they surpassed a yield value >70% by peak area during this first pass evolution.
as §5

The nature of data set [5]: Mogroside biocatalytic assay, equimolar MogV:SiaI substrate. The settings on record: comparison of wildtype and variant. Here is the method: as §2, §1
Data set [6] in a line: β-galactosidase ONPG activity assay. As to conditions: oNPG substrate, over 30 minutes. How it is done:
Standard β-galactosidase assays were performed at room temperature using o-nitrophenyl-β-D-galactopyranoside (ONPG, Sigma) as a substrate in […] with detection of o-nitrophenol release at 420 nm (UV-Spectra Max Spectrophotometer, Molecular Devices, USA). A typical reaction contained 50 mM sodium citrate buffer pH 5.6, 10 mM magnesium chloride and 100 mM potassium chloride with 2 mM ONPG and the desired amount of enzyme (usually […]). Partially purified AoBG (Sigma G5160, USA) was used as a positive control at a final concentration of 1 U mL−1. Vmax was calculated using the SpectraMax Plus software (Molecular Devices, USA) and when required kinetics were determined by varying the concentration of substrate and kinetic determinants calculated using Hyper™ (J. S. Easterby, Liverpool University).
as §3

B1: PpAoBG: same acid lactase/β-Galactosidase enzyme as the Maxilact A4, expressed in a Pichia pistoris system (protein, UniProt Q2UCU3 19-1005, looked up)
Beta-galactosidase A: ASIKHRLNGFTILEHPDPAKRDLLQDIVTWDDKSLFINGERIMLFSGEVHPFRLPVPSLWLDIFHKIRALGFNCVSFYIDWALLEGKPGDYRAEGIFALEPFFDAAKEAGIYLIARPGSYINAEVSGGGFPGWLQRVNGTLRSSDEPFLKATDNYIANAAAAVAKAQITNGGPVILYQPENEYSGGCCGVKYPDADYMQYVMDQARKADIVVPFISNDASPSGHNAPGSGTGAVDIYGHDSYPLGFDCANPSVWPEGKLPDNFRTLHLEQSPSTPYSLLEFQAGAFDPWGGPGFEKCYALVNHEFSRVFYRNDLSFGVSTFNLYMTFGGTNWGNLGHPGGYTSYDYGSPITETRNVTREKYSDIKLLANFVKASPSYLTATPRNLTTGVYTDTSDLAVTPLIGDSPGSFFVVRHTDYSSQESTSYKLKLPTSAGNLTIPQLEGTLSLNGRDSKIHVVDYNVSGTNIIYSTAEVFTWKKFDGNKVLVLYGGPKEHHELAIASKSNVTIIEGSDSGIVSTRKGSSVIIGWDVSSTRRIVQVGDLRVFLLDRNSAYNYWVPELPTEGTSPGFSTSKTTASSIIVKAGYLLRGAHLDGADLHLTADFNATTPIEVIGAPTGAKNLFVNGEKASHTVDKNGIWSSEVKYAAPEIKLPGLKDLDWKYLDTLPEIKSSYDDSAWVSADLPKTKNTHRPLDTPTSLYSSDYGFHTGYLIYRGHFVANGKESEFFIRTQGGSAFGSSVWLNETYLGSWTGADYAMDGNSTYKLSQLESGKNYVITVVIDNLGLDENWTVGEETMKNPRGILSYKLSGQDASAITWKLTGNLGGEDYQDKVRGPLNEGGLYAERQGFHQPQPPSESWESGSPLEGLSKPGIGFYTAQFDLDLPKGWDVPLYFNFGNNTQAARAQLYVNGYQYGKFTGNVGPQTSFPVPEGILNYRGTNYVALSLWALESDGAKLGSFELSYTTPVLTGYGNVESPEQPKYEQRKGAY
modifications: expressed in Pichia pastoris
notes: same acid lactase/β-Galactosidase enzyme as the Maxilact A4, expressed in a Pichia pistoris system
Regarding B1, in data set [1], the “Mog III” value was found to be 12%, the “Mog IV” value turned out to be 21%, the “Mog V” value is 24% and the “Siam I” value stood at 43%. For the same molecule, in data set [2] (mogV assay, HPLC analysis, 37° C., after 48 hrs), the “Siamenoside I produced” value is around 32%.

B2: S2 RRK 12: RRK loop library clone, positions 204/205/208: GCV (wildtype) (protein, UniProt Q2UCU3 19-1005, looked up)
Beta-galactosidase A: B1 Beta-galactosidase A
Regarding B2, the “Siamenoside I Substrate Evaluation % Peak Area Siamenoside I Left After 72 hr” value in data set [3] was determined as 35 % Peak Area. Moreover, in data set [4], the “% Peak Area Siamenoside I” value stood at 66 % Peak Area and the “Reaction Progress” value came to 89.

B3: S2 RRK 13: RRK loop library variant, positions 204/205/208: EES (protein, UniProt Q2UCU3 19-1005, looked up, variant G204E C205E V208S)
Beta-galactosidase A: B1 Beta-galactosidase A with G186E, C187E, V190S
On to B3, for which, in data set [3], the “Siamenoside I Substrate Evaluation % Peak Area Siamenoside I Left After 72 hr” value is reported as 73 % Peak Area. Moreover, in data set [4], the “% Peak Area Siamenoside I” value turned out to be 72 % Peak Area and the “Reaction Progress” value amounted to 88.

B4: E804A: A. oryzae β-galactosidase variant, E804A (protein, UniProt Q2UCU3 19-1005, looked up, variant E804A)
Beta-galactosidase A: B1 Beta-galactosidase A with E786A
B4: the “effectiveness of Siamenoside I as a substrate in the presence of mogroside V (in words)” value in data set [5] is given as “reducing the effectiveness of Siamenoside I as a substrate”. Moreover, the oNPG in data set [6] is 34.7 ± 0.4 mAu/min/mg. In data set [2], the “Siamenoside I production/yield from mogroside V (in words)” value is given as “increased ratio of Siamenoside I production; also recorded: increased Siamenoside I yield”, the “Initial Rate” value came to 3.06 µmol/min/mg, the “Reaction Progress” value is recorded as 78% and the “Sia 1” value was 62%. In data set [2], the “Sia:MogIII” value worked out at 18.6 and the “Sia:MogIV” value stood at 3.3.

B5: ML: acid lactase/β-Galactosidase enzyme preparation from Aspergillus oryzae expressed in Aspergillus niger (protein, UniProt Q2UCU3 19-1005, looked up)
Beta-galactosidase A: B1 Beta-galactosidase A
modifications: enzyme preparation expressed in Aspergillus niger
On to B5, for which, in data set [1], the “Mog III” value amounted to 17%, the “Mog IV” value turned out to be 12%, the “Mog V” value stood at 22% and the “Siam I” value is 49%.

B6: S1 RRK 14: RRK loop library variant, positions 204/205/208: NNE (protein, UniProt Q2UCU3 19-1005, looked up, variant G204N C205N V208E)
Beta-galactosidase A: B1 Beta-galactosidase A with G186N, C187N, V190E
Consider B6, for which the “Siamenoside I Substrate Evaluation % Peak Area Siamenoside I Left After 72 hr” value in data set [3] turned out to be 84 % Peak Area. Besides, in data set [4], the “% Peak Area Siamenoside I” value was determined as 74 % Peak Area and the “Reaction Progress” value is reported as 75.

B7: S2 RRK 16: RRK loop library variant, positions 204/205/208: NGR (protein, UniProt Q2UCU3 19-1005, looked up, variant G204N C205G V208R)
Beta-galactosidase A: B1 Beta-galactosidase A with G186N, C187G, V190R
As to B7, the “Siamenoside I Substrate Evaluation % Peak Area Siamenoside I Left After 72 hr” value in data set [3] stood at 72 % Peak Area. Also, in data set [4], the “% Peak Area Siamenoside I” value was 72 % Peak Area and the “Reaction Progress” value is reported as 87.

B8: S3 RRK 5: RRK loop library variant, positions 204/205/208: ESG (protein, UniProt Q2UCU3 19-1005, looked up, variant G204E C205S V208G)
Beta-galactosidase A: B1 Beta-galactosidase A with G186E, C187S, V190G
In the case of B8, the “Siamenoside I Substrate Evaluation % Peak Area Siamenoside I Left After 72 hr” value in data set [3] is 69 % Peak Area. For the same molecule, in data set [4], the “% Peak Area Siamenoside I” value turned out to be 73 % Peak Area and the “Reaction Progress” value is 87.

B9: E298Q: A. oryzae β-galactosidase variant, E298Q (protein, UniProt Q2UCU3 19-1005, looked up, variant E298Q)
Beta-galactosidase A: B1 Beta-galactosidase A with E280Q
The molecule B9 gave an oNPG in data set [6] of 5.2 ± 0.1 mAu/min/mg. In addition, in data set [2], the “Initial Rate” value was 1.82 µmol/min/mg, the “Reaction Progress” value was 89%, the “Sia 1” value was found to be 48% and the “Sia:MogIII” value is listed as 3.7. The “Sia:MogIV” value in data set [2] is 2.2.

B10: S3 RRK 7: RRK loop library variant, positions 204/205/208: DSE (protein, UniProt Q2UCU3 19-1005, looked up, variant G204D C205S V208E)
Beta-galactosidase A: B1 Beta-galactosidase A with G186D, C187S, V190E
Take B10: in data set [3], the “Siamenoside I Substrate Evaluation % Peak Area Siamenoside I Left After 72 hr” value was 73 % Peak Area. Also, in data set [4], the “% Peak Area Siamenoside I” value turned out to be 72 % Peak Area and the “Reaction Progress” value is on record as 85.

B11: S2 RRK 2: RRK loop library variant, positions 204/205/208: GDG (protein, UniProt Q2UCU3 19-1005, looked up, variant C205D V208G)
Beta-galactosidase A: B1 Beta-galactosidase A with C187D, V190G
For the molecule B11, the “Siamenoside I Substrate Evaluation % Peak Area Siamenoside I Left After 72 hr” value in data set [3] was determined as 78 % Peak Area. Besides, in data set [4], the “% Peak Area Siamenoside I” value amounted to 76 % Peak Area and the “Reaction Progress” value was determined as 87.
